167 variants from the RNAGym collection of RNA variant scans (doi:10.7554/elife.90254) can be followed below.

Sequences and labels used below:
B1: OR4K15 (parent)
chain: GUUAACGGUCAUAGGCCAUGGAAACUAGGAGCACCAUUUCGCUGCCAGUGAAGAAAUGAACAAAGAAAAUCUGGGCCAGGCAGGCAUCAAAAGAAAUAGUCUUGCGCUCAACCAGAAAGUCUGUAAUCAUUUUAAGGGUA

Variants of B1 are the subject of this data set. Description: self-cleavage, relative activity (ratio to wild type); higher = more cleavage; in vitro, sequencing; the parent is a self-cleaving ribozyme.
Turning to A64U A92G, the self-cleavage came out at 1.11.

Take A59G U127A: the self-cleavage came to 1.82.

As for U38G A62U, the self-cleavage turned out to be 1.41.

Take A5G A56G: the self-cleavage amounted to 0.66.

For A4G U87C, the self-cleavage worked out at 1.14.

As for G15A A114G, the self-cleavage was determined as 0.06.

For the variant U3A A95G, the self-cleavage stood at 1.42.

Regarding U38C G75C, the self-cleavage was determined as 0.14.

Regarding C34U A111G, the self-cleavage was determined as 0.04.

A66U C113A: the self-cleavage amounted to 0.

Consider U3C A60C, for which the self-cleavage stood at 0.91.

C34U A96C: the self-cleavage worked out at 0.19.

For A94G A98U, the self-cleavage came to 2.36.

For the variant C17U A62G, the self-cleavage stood at 0.91.

With U70A U131C, the self-cleavage was determined as 0.7.

U2A U43C: the self-cleavage is 0.84.

With U2A U102C, the self-cleavage is 1.15.

On to U12C A78U, for which the self-cleavage came to 0.34.

As for A55U U131C, the self-cleavage amounted to 2.

As to A18U A60G, the self-cleavage was found to be 0.68.

With A62U A64G, the self-cleavage came out at 1.46.

Regarding A95C U124C, the self-cleavage worked out at 0.32.

For the variant C46U A69U, the self-cleavage turned out to be 1.84.

With A5G A13U, the self-cleavage stood at 0.95.

U3C A94G: the self-cleavage came to 2.02.

Turning to A4G U12C, the self-cleavage came out at 0.58.

Turning to A66G U127A, the self-cleavage amounted to 2.35.

On to A5G U139A, for which the self-cleavage amounted to 1.6.

Regarding A33C G74A, the self-cleavage was 0.38.

On to A98G A110U, for which the self-cleavage turned out to be 0.31.

As for A36C A126G, the self-cleavage was determined as 1.17.

Turning to G29A A54G, the self-cleavage was 1.96.

As to G44A G84U, the self-cleavage came to 0.93.

Take A33G A129C: the self-cleavage was found to be 0.63.

For A91C A114G, the self-cleavage stood at 0.64.

Take A92G U139A: the self-cleavage came out at 2.12.

As to A54G U122C, the self-cleavage is 1.

With A36U A66U, the self-cleavage was found to be 1.05.

For the variant A18U A126G, the self-cleavage came out at 1.86.

For the variant A92G A111G, the self-cleavage turned out to be 0.02.

For the variant U37C G136U, the self-cleavage was 1.97.

In the case of A68G U139A, the self-cleavage came out at 2.25.

Take U39A A82U: the self-cleavage is 0.28.

As for G79A U108A, the self-cleavage came to 0.02.

Consider C45U A140G, for which the self-cleavage was determined as 1.42.

As for A51G U131G, the self-cleavage is 1.08.

In the case of U2C U108C, the self-cleavage was found to be 0.03.

In the case of A68G A92U, the self-cleavage was 1.87.

For A51G A117U, the self-cleavage turned out to be 0.52.

As to A23G A129C, the self-cleavage came out at 0.82.

Take A22U A135G: the self-cleavage stood at 0.4.

Consider U12C A69G, for which the self-cleavage was determined as 1.68.

Take A22G U127C: the self-cleavage stood at 0.43.

U19A U127C: the self-cleavage was 0.92.

On to G79U U132C, for which the self-cleavage is 0.09.

Consider A47C U120C, for which the self-cleavage amounted to 1.

On to G58A A96G, for which the self-cleavage is 1.84.

As to A54G G84C, the self-cleavage came out at 0.61.

On to A68U C113A, for which the self-cleavage came to 0.01.

For the variant A114G U127A, the self-cleavage was found to be 0.47.

For the variant A56G U133C, the self-cleavage is 1.43.

For the variant U38C A54U, the self-cleavage came to 2.56.

On to A4G A33U, for which the self-cleavage came to 0.59.

As for G31U A52G, the self-cleavage amounted to 1.71.

G7U A111G: the self-cleavage stood at 0.

As for U39A A59G, the self-cleavage was determined as 1.6.

Consider C76A U131C, for which the self-cleavage was 0.08.

On to A64G U70A, for which the self-cleavage amounted to 0.97.

On to A52U A54G, for which the self-cleavage worked out at 1.25.

Take U9C U57A: the self-cleavage came out at 1.6.

Take A64U A68G: the self-cleavage turned out to be 2.16.

With A22U A62U, the self-cleavage amounted to 1.58.

Turning to A98U A116U, the self-cleavage is 0.97.

In the case of C10U A117G, the self-cleavage was determined as 2.34.

Regarding A59G C101A, the self-cleavage was 0.13.

Consider A55U U132C, for which the self-cleavage turned out to be 2.21.

With C76U U108A, the self-cleavage worked out at 0.01.

Turning to A18G U139A, the self-cleavage came out at 1.83.

On to U19C A117C, for which the self-cleavage was determined as 0.71.

For A51U U72C, the self-cleavage was 0.23.

In the case of A47U U132C, the self-cleavage was found to be 1.02.

In the case of A52U A82U, the self-cleavage turned out to be 0.2.

For the variant A129U A134U, the self-cleavage was 1.18.

For A118G A140G, the self-cleavage amounted to 1.32.

Turning to A55U A67U, the self-cleavage turned out to be 1.6.

Turning to A67G A134G, the self-cleavage was 1.7.

On to U37C A110C, for which the self-cleavage came to 0.1.

Take A86U A91U: the self-cleavage worked out at 1.77.

Take A69G U120A: the self-cleavage was found to be 1.44.

On to A22G U139C, for which the self-cleavage came out at 1.24.

With A60U U131C, the self-cleavage was found to be 0.75.

A24G C109U: the self-cleavage was 0.46.

For the variant U19G A67G, the self-cleavage turned out to be 1.1.

Take A33U A62G: the self-cleavage amounted to 1.52.

Turning to A67G A68U, the self-cleavage is 1.13.

Turning to U38G A59G, the self-cleavage came out at 0.9.

A36U C107G: the self-cleavage amounted to 0.03.

Regarding U97C A116G, the self-cleavage was found to be 0.77.

For the variant C6U A69G, the self-cleavage is 1.05.

Take U70C U72C: the self-cleavage was 0.31.

Regarding G136A, the self-cleavage was found to be 1.34.

Turning to U12C U103C, the self-cleavage stood at 1.41.

For U108A U127C, the self-cleavage came out at 0.

Take U12C U132C: the self-cleavage worked out at 0.2.

For the variant A5G G137A, the self-cleavage was 0.6.

In the case of U12C A118U, the self-cleavage was 0.22.

For U2C A59U, the self-cleavage was 0.98.

On to U19C G119A, for which the self-cleavage is 2.13.

U122A A135G: the self-cleavage worked out at 2.11.

Turning to A60G A117C, the self-cleavage was 0.3.

A51G U127C: the self-cleavage is 1.04.

On to A27G A69G, for which the self-cleavage was found to be 0.62.

Regarding U39C C107A, the self-cleavage was 0.03.

For the variant G84C U100C, the self-cleavage was found to be 0.27.

A47G U72A: the self-cleavage is 0.09.

For C25A A56G, the self-cleavage is 1.41.

In the case of A24G A51C, the self-cleavage is 0.87.

U12A A30U: the self-cleavage turned out to be 1.11.

For the variant A51G U70C, the self-cleavage amounted to 0.95.

With U38C A96U, the self-cleavage amounted to 1.66.

With A5U A33C, the self-cleavage came to 1.62.

On to C109U U127G, for which the self-cleavage is 0.62.

In the case of U38A A47G, the self-cleavage turned out to be 1.59.

As for U72C G106A, the self-cleavage is 0.02.

For C45U G119A, the self-cleavage turned out to be 1.99.

As for A62U A117G, the self-cleavage was found to be 1.64.

With A4G U122A, the self-cleavage is 1.37.

In the case of A11C U72C, the self-cleavage was determined as 0.13.

G41U A117G: the self-cleavage worked out at 1.93.

Turning to U12A A90G, the self-cleavage is 0.57.

Consider A64G A91C, for which the self-cleavage is 1.76.

For the variant A134G A135G, the self-cleavage turned out to be 1.25.

For the variant A11U A118U, the self-cleavage is 0.51.

Regarding A24G A110C, the self-cleavage was 0.55.

Regarding A69G A92G, the self-cleavage was 0.72.

Regarding U39C U124C, the self-cleavage amounted to 1.25.

Turning to A98C, the self-cleavage was found to be 0.96.

In the case of G15U A62G, the self-cleavage was 2.71.

With U43A A135C, the self-cleavage is 1.29.

As for A18G U130G, the self-cleavage was 1.61.

On to G41U A47G, for which the self-cleavage turned out to be 1.2.

For the variant U38C A89U, the self-cleavage amounted to 2.15.

Consider U37C U102A, for which the self-cleavage was determined as 1.05.

Consider U9C A92G, for which the self-cleavage came to 0.82.

For the variant U9C A92C, the self-cleavage came to 2.26.

As to U97C U100C, the self-cleavage amounted to 2.15.

With C6A U122C, the self-cleavage is 0.29.

In the case of U26A A54G, the self-cleavage was determined as 1.95.

Regarding A60U A117U, the self-cleavage was 1.11.

Consider A64G A69U, for which the self-cleavage turned out to be 1.58.

As for A47C G74U, the self-cleavage turned out to be 0.15.

As to A126G A129G, the self-cleavage worked out at 0.97.

With U19C G74C, the self-cleavage was found to be 0.18.

U12C A54U: the self-cleavage stood at 1.51.

For A67G G74U, the self-cleavage came to 0.24.

On to U37C A91G, for which the self-cleavage is 1.36.

In the case of U103C A126G, the self-cleavage came out at 0.35.

In the case of A66G C105A, the self-cleavage was determined as 0.05.

On to U39A A98G, for which the self-cleavage turned out to be 1.11.

Turning to A69G U108C, the self-cleavage was 0.02.

Consider U87C G137A, for which the self-cleavage stood at 2.3.

With A62G A114U, the self-cleavage was 0.02.

In the case of A92U U132C, the self-cleavage stood at 0.8.

Consider A92G U127A, for which the self-cleavage was 2.33.

Take G65A U124A: the self-cleavage was 1.36.

Regarding U39C A64U, the self-cleavage came to 1.77.

With A36G A135G, the self-cleavage was 1.59.
